Experimental data as given in patent US20220002357A1.

How the values were obtained:
[1] = target: mu-opioid receptor fused to Gαi1-RLuc8 chimera (MOR-Gi1RLuc) (human) (UniProt P63096); test: ADSoRB radiotracer adsorption to microsomal membranes, scintillation counting
[2] = target: mu-opioid receptor unfused (MOR); test: as above
[3] = target: mu-opioid receptor fused to Gαi1-RLuc8 chimera (MOR-Gi1RLuc) (human) (UniProt P63096); test: ADSoRB radiotracer elution from microsomal membranes with GPPNHP, scintillation counting
[4] = target: mu-opioid receptor unfused (MOR); test: as above
[5] = target: µ-opioid receptor (MOR) fused to Gαi1 protein (MOR-Gi1) (human) (UniProt P63096); test: ADSoRB radiotracer elution from microsomal membranes with GPPNHP, scintillation counting (FIG. 2B)
Sequence of µ-opioid receptor (MOR) fused to Gαi1 protein (MOR-Gi1) (human) (P63096 whole entry, the tested form may be a part): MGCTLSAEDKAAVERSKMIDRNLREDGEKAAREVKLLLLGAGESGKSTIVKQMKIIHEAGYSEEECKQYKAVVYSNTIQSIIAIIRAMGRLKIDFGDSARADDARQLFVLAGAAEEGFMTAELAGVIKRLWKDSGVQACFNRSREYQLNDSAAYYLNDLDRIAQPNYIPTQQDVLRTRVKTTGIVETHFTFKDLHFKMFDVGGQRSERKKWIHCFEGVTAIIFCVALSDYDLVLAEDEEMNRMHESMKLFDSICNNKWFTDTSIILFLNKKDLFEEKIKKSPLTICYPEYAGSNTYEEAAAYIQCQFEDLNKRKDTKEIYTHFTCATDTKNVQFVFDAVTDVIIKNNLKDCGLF

[6] = target: µ-opioid receptor (MOR) fused to Gαi1 protein (MOR-Gi1) (human) (UniProt P63096); test: ADSoRB radiotracer elution from microsomal membranes with buffer control, scintillation counting (FIG. 2B)
neurotensin receptor = test: cell-based or functional assay

Sequence of mu-opioid receptor fused to Gαi1-RLuc8 chimera (MOR-Gi1RLuc) (human) (P63096 whole entry, change not shown, the tested form may be a part): as the sequence (P63096 whole entry, the tested form may be a part) above

NET BRET response at GαZ, 96-well plate (neurotensin receptor)	NET BRET response at GαZ, 384-well plate (neurotensin receptor)	Neurotensin potency, GαZ-114-Rluc8/Gβ3γ1-GFP2 BRET biosensor, 96-well plate (neurotensin receptor) [nM]	Neurotensin potency, GαZ-114-Rluc8/Gβ3γ1-GFP2 BRET biosensor, 384-well plate (neurotensin receptor) [nM]	Substance	unbound tracer (%) (% unbound tracer) [1]	unbound tracer (%) (% unbound tracer) [2]	fraction of agonist eluted upon GPPNHP treatment (% of total agonist) (% of total agonist) [3]	fraction of agonist eluted upon GPPNHP treatment (% of total agonist) (% of total agonist) [4]	elution upon complex dissociation/uncoupling with GPPNHP (% of total agonist added) (% of total agonist added) [5]	elution with buffer control (% of total agonist added) (% of total agonist added) [6]
				[3H]DAMGO (peptide)	23	67	7	0.8	30	2
0.495	0.625	1.85	1.68	neurotensin peptide (8-13) (from UniProt P30990 31-36)						
